Nine molecules from US7537764 can be followed below.

The target in experiment [1] is T1, West Nile virus strain USA99b (strain 385-99), whole virus (West Nile virus strain 385-99 (USA99b)).
T1 construct: mature
The experiment is described as follows: phage ELISA on coated whole inactivated WNV. (In general: An ELISA detects its analyte on a solid surface through an enzyme-linked reagent.)

In experiment [2] the target is T2, recombinantly expressed purified soluble WNV E protein (truncated form, strain 382-99) (West Nile virus strain 382-99, UniProt Q9Q6P4 291-696).
T2 construct: also called recombinant WNV-E protein; truncated E protein
T2 sequence: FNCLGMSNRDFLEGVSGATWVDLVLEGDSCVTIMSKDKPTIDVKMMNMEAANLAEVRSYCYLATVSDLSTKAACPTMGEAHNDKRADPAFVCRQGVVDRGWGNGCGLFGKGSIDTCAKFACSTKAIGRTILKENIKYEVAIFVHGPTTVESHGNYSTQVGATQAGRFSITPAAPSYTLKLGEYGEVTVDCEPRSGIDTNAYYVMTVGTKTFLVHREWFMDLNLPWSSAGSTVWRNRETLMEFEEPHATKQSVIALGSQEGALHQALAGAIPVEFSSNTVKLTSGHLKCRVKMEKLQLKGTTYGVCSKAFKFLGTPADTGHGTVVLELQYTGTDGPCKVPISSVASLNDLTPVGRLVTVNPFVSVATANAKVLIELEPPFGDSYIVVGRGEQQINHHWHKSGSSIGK
As to the kind of experiment: phage ELISA on coated recombinant soluble WNV E protein.

B1: SC04-311 (scFv)
scFv: EVQLVQSGGGVVQPGRSLRLSCVASGFTFSKDAMHWVRQAPGKGLEWVAVISYDGSDKHYADSVKGRVTISRDNSRKTLYLRMDSLRAEDTALYYCARGYNSGHYFDYWGQGTLITVSSGTGGSGGTGSGTGGSTQSVLTQPPSVSAAPGQKVTISCSGTSSNIGDNYVSWYQHLPGTAPKLLIYDNNKRPSGIPDRFSGSKSGTSATLGVTGLQTGDEADYYCGTWDSSLTAVVFGGGTKLTVLG
As to B1, the “OD 492 nm” value in experiment [1] was determined as 1.04 OD; in experiment [2] it was 1.54 OD.

B2: SC04-271 (scFv)
scFv: EVQLVETGAEVKKPGESLRISCKGSGYTFNNYWIGWVRQMPGKGLEWMGIIYPGDSDTRYSPSVQGHVTISADKSINTAYLQWSSLKASDTAVYYCARRPGYDYGFYYFDYWGQGTLVTVSSGTGGSGGTGSGTGGSTQSALTQPRSVSGSPGQSVTISCTGTSSDVGGYNYVSWYQHHPGKAPKLMIYDVSNRPLGVSNRFSGSKSGNTASLTISGLQAEDEADYYCSSYTSSSTYVFGTGTHLTVLS
Turning to B2, the “OD 492 nm” value in experiment [1] came out at 0.984 OD; in experiment [2], 0.608 OD.

B3: SC04-283 (scFv)
scFv: EVQLVQSGAEVKKSGESLKISCKGSGYTFNTYWIGWVRQMPGKGLEWMGIIYPGDSDTIYSPSFQGQVTISADKSISTAYLQWSSLKASDSAMYYCARLTFRRGYSGSDSFLPPGDFDYWGQGTLVTVSSGTGGSGGTGSGTGGSTDIQMTQSPSTLSASVGDRVTITCRASQSISSWLAWYQQKPGKAPNLLIYAASSLQSGVPSRFSGSGSGTDFTLTISSLQPDDSATYYCQQYNTYPLTFGGGTKVEIKR
For the molecule B3, the “OD 492 nm” value in experiment [1] is 1.21 OD; in experiment [2], 0.074 OD.

B4: SC04-299 (scFv)
scFv: EVQLVETGGGVVQPGRSLRLSCAASGFTFSGYAMHWVRQAPGKGLDWVAVISYDGSEKYSADSVKGRFTISRDNSKNTLYLQMNSLRAEDTAVYYCAKESGGPIWYKYYGVDVWGQGTTVTVSSGTGGSGGTGSGTGGSTSYVLTQPPSLSAAPRQRVTISCSGSSSNIGNYGVNWYQQLPGKAPKLLIYYDDLLPSGVSDRFSGSKSGTSASLAISGLQSEDEGDYYCAAWDDTLSAWVFGGGTKLTVLG
As for B4, the entries for the “OD 492 nm” value in experiment [1] and in experiment [2] were 1.07 OD and 0.072 OD, respectively.

B5: SC04-353 (scFv)
scFv: EVQLVQSGGGVVQPGRSLRLSCAASGFTFSNYAMHWVRQAPGKGLEWVAVISYDGGNKYYADSVKGRFTMSRDNSKNTLYLQMNSLRAEDTAVYYCARDFWSGYSMVDSYYYYMDVWGKGTTVTVSSGTGGSGGTGSGTGGSTETTLTQSPGTLSLSPGERATLSCRASQSVSNTFLAWYQQKPGQAPRLLIYGASSRATGIPDRFSGSGSGTDFTLTISRLEPEDFAAYYCQQYGSSLTFGPGTKVDIKR
B5: the “OD 492 nm” value in experiment [2] was 0.099 OD.

B6: SC04-374 (scFv)
scFv: QVTLKESGPTLVKPTQTLTLTCTFSGFSLSTSGVGVGWIRQPPGKALEWLAVIYWNDDKLYRPSLKSRLTITKDTSKNQVVLTMTKMDPVDTATYYCAHRHRYYDISGYYRLFSDAFDIWGQGTMVTVSSGTGGSGGTGSGTGGSTQSVVTQPPSVSGAPGQRVTISCTGSSSNIGAGYDVHWYQQLPGTAPKLLIYGNSNRPSGVPDRFSGSKSGTSASLAITGLQAEDEADYYCQSYDSSLSGSVFGGGTKLTVLG
As to B6, the “OD 492 nm” value in experiment [2] was found to be 1.36 OD.

B7: SC04-361 (scFv)
scFv: EVQLVQSGAEVKKPGESLKISCKASGFSFSTYWIGWVRQMPGKGLEWMGIIYPADSDTRYSPSFQGQVTISADKSISTAYLQWSSLKASDTAMYYCARLRGPYYDFWNGYRETHDAFNVWGQGTMVTVSSGTGGSGGTGSGTGGSTDVVMTQSPDSLAVSLGERATINCKSSQNILDNSDNKNFLAWYQQKPGQPPKLLIYWASARESGVPDRFSGSGSGTDFTLTISSLQAEDVALYYCQQYYNTPITFGQGTRLEIKR
B7: the “OD 492 nm” value in experiment [2] came to 0.076 OD.

B8: SC04-289 (scFv)
scFv: QMQLVQSGAEVKKPGESLRISCKGSGYSFTSNWITWVRQMPGKGLEWMGRIDPSDSYTNYSPSFQGHVTISADKSISTAYLQWSSLKASDTAMYYCARDVVGVGASDYYYYMDVWGKGTTVTVSSGTGGSGGTGSGTGGSTEIVLTQSPGTLSLSPGETATLSCRTSQSVSSSYLGWYQQKPGQAPRLLIYGASIRATGIPARFSGSGSGTEFTLTIDSLQSEDFAVYYCQQYNNWPPITFGQGTRLEIKR
In the case of B8, the entries for the “OD 492 nm” value in experiment [1] and in experiment [2] were 0.759 OD and 1.39 OD, respectively.

B9: SC04-325 (scFv)
scFv: QMQLVQSGAEVKKPGSSVKVSCKASGDTFSSYAISWVRQAPGQGLEWMGGIFGTASYAQKFQGRVTITADESTSTAYMELSSLRSEDTAVYYCARGGMATTPGLDYWGQGTLVTVSSGTGGSGGTGSGTGGSTDIQLTQSPDSLAVSLGERATINCKSSQSVLYSSNNKNYLAWYQQKPGQPPKLLIYWASTRESGVPDRFSGSGSGTDFTLTISSLQAEDVAVYYCQQYYSTPLTFGQGTKVEIKR
With B9, the “OD 492 nm” value in experiment [2] came to 1.4 OD.
